Measurements taken from US9902783B2, “Antibodies and pharmaceutical compositions containing same useful for inhibiting activity of metalloproteins” (Yeda Research and Development Co. Ltd., priority 2007, dated 2018).

B1: 6C6: monoclonal antibody, IgG2a, raised against the hapten Imisdp; MMP-2 and MMP-9 inhibitory; SEQ ID NO: 1 (protein)
chain: CMETTQTPLSLPVSLGDQASISCRSSQSIVHSNGNTFLEWYLQKPGQSPKLLIYKVSNCRFSGVPDRFSGSGSGTDFTLKISRVEAEDLGVYYCFQASHVPPTFGGG
modifications: 6c6 mAb light chain
B2: 13E11: monoclonal antibody, IgG2b, raised against the hapten CoTCPP (antibody, V domains shown)
VH: EGGGLVQPGGSRKLSCAASGFTFTSFGMHWVRQAPEKGLEWVAYISSGNEIIYYADTVKGRFTISRDNPKNTLFLQMTSLRSEDTAMYYCARNYYRYGFYVMDYWGQG
VL: EIVVTQSPAILSASPGEKVTMTCRASSSVSYMHWYQQKPGSSPKPWIYATSNELASGVPARFSGSGSGTSYSLTISRVEAEDAATYYCQQWISNPLTFGAG
modifications: 13E11 mAb heavy chain; 13E11 mAb light chain
notes: monoclonal antibody, IgG2b, raised against the hapten CoTCPP

Key:
[1] = target: T1, active MMP-9 (Mus musculus, UniProt P41245); experiment: co-purification of active MMP-9 with mAb from mice ascites fluid (western blot); assay type: binding; settings: co-purified from mice ascites fluid, about 82 KDa band in western blot
T1 construct: corresponding to active MMP9 lacking the pro-domain was identified; from tissue; host or cells: mouse ascites fluid
Description: FIGS. 11A-11D are photographs and models illustrating that 6C6 binds only the active conformation of MMP9 and MMP2. FIG. 11A: Detection of active MMP9 that co-purified with 6C6 from mice ascites fluid. MAb (10 μg) purified from mice ascites fluid containing MMP9, was subjected to western blot (WB) analysis using commercial anti MMP9 antibody. Non related IgG mAb that has been purified in the same manner, served as negative control (MAb Control). Human ProMMP9 purified from Hilla transfected cells served as molecular weight marker to discern the active species. Purification was done by affinity chromatography using protein G beads which bind mAb via its constant domain, leaving the antigen binding site free to interact with the antigen. FIGS. 11B,C: 6C6 mAb immobilized to protein A beads was analyzed for its ability to pull down ProMMP2, ProMMP9, or MMP2 catalytic fragment (lacking the hemopexin and pro domains) from solution. […]
Selected hybridomas were subcloned twice by limited dilutions, followed by large-scale production by ascites tumors primed with pristine (2,6,10,14 tetrametylpentadecane) injected BALB/c mice. […] The elution peak was analyzed by SDS-PAGE.
Purified antibodies were separated in 8% SDS-polyacrylamide gel, transferred to NC membranes (Bio-Rad), and subsequently subjected to immunoblot analysis using anti MMP-9 antibody (Sigma). […] Signals were detected using ECL (Pierce).

[2] = system: DSS-induced colitis; experiment: DSS induced acute colitis in mice; assay type: in vivo, C57BL/6 mice; settings: for reduction in colon length: 11 days after DSS induction, versus naïve mice
Description: FIGS. 15A-15C are graphs illustrating the effect of 6C6 treatment on the various manifestations of acute DSS colitis in C57BL/6 mice. Disease was induced by 2% DSS for 5 days. 6C6 treatment, 5 or 1.5 mg/kg mouse, was administered by daily i.p. injection starting from day 0. FIG. 15A: Clinical score was evaluated by daily monitoring of DAI (which is the combined score of body weight, rectal bleeding and stool consistency, on a scale of 0-4). Data are expressed as the dot distribution of a mean for each animal of days 6 to 10. FIG. 15B: Colon length. FIG. 15C: Mortality. The data presented are the combined results of two experiments, with a total of 15 mice per group.*, significant effect over colitis-untreated mice (p<0.05).
To explore the inhibitory activity of 6C6, the ability of mAb treatment to ameliorate DSS induced acute colitis was examined Specifically, 2% DSS was provided to the highly susceptible mouse strain C57BL/6 for five days. 6C6 treatment was given daily by intraperitoneal injections of 1.5 or 5 […], starting at the day of induction. Mice exposed to 2% DSS developed symptoms of acute colitis, with diarrhea, rectal bleeding and severe weight loss.

[3] = target: T2, MMP-2 catalytic domain (MMP-2cat) (Mus musculus, UniProt P33434); experiment: immuno affinity pull down of MMP-2 catalytic domain; assay type: binding; settings: SDS-PAGE
T2 construct: NP_032636.1; made in house; host or cells: BL-21 cells (E. coli)
Description: FIGS. 3A-3C are western blot images showing the ability of mouse IgG-Agarose immobilized mAbs to pull down recombinant MMP-2 catalytic domain (MMP-2cat) or Pro-MMP-2 and Pro-MMP-9 from solution. Antibodies used for each experiment are 6C6, 13E11, and 13E15. FIG. 3A—MMP-2cat (2 μg) was incubated with anti-mouse IgG-Agarose (cntl, lane1) or anti CoTCPP, ZnTCPP and Imisdp mAb (10 μg)-anti-mouse IgG-Agarose for 2 hr at 20° C., immunoprecipitates (lane 2, 3, 5) were centrifuged and washed three times, separated on SDS/PAGE gel and visualized by Coomassie-staining. […]
FIGS. 11A-11D are photographs and models illustrating that 6C6 binds only the active conformation of MMP9 and MMP2. […] FIGS. 11B,C: 6C6 mAb immobilized to protein A beads was analyzed for its ability to pull down ProMMP2, ProMMP9, or MMP2 catalytic fragment (lacking the hemopexin and pro domains) from solution. […]
MAbs (10 μg) were incubated with anti mouse IgG Agarose beads (Sigma) overnight at 4° C. in PBS. […] The proteins that remained bound to the beads were eluted with SDS sample buffer, fractionated by SDS-PAGE, and detected by staining with Coomassie blue.

[4] = target: Heme group within Hemoglobin (Homo sapiens, UniProt P68871+P69905); experiment: cross reactivity, competitive ELISA and immuno affinity assay, Hemoglobin; assay type: binding
From the text: The selectivity of anti CoTCPP and anti Imisdp was further challenged, by testing their cross reactivity with non related zinc dependent enzymes—Carbonic Anhydrase (CA) and brockii alcohol dehydrogenase (TbADH). Similar to active MMPs CA contains a zinc ion that is tetrahedraly coordinated to three histidine residues and a water molecule, TbADH contains a catalytic zinc ion that is tetraheadrally coordinated to four different amino acid residues, histidine, cysteine, aspartate and glutamate. […] Anti CoTCPP mAb was also tested for its cross reactivity with related physiological porphyrins such as the Heme group within Myoglobin and Hemoglobin and vitamin.

[5] = target: TACE (Homo sapiens, UniProt P78536); experiment: immuno affinity binding assay, TACE; settings: purified enzyme
Description: MAbs (10 μg) were incubated with anti mouse IgG Agarose beads (Sigma) overnight at 4° C. in PBS. After washing unbound antibody, purified Pro-MMP-2, Pro-MMP-9 MMP-2 catalytic domain, MT1 catalytic domain or TACE (2 μg), were added following 2 h incubation at RT. The beads were collected by centrifugation and washed three times with PBS. The proteins that remained bound to the beads were eluted with SDS sample buffer, fractionated by SDS-PAGE, and detected by staining with Coomassie blue.

[6] = target: MMP-2 (Mus musculus, UniProt P33434); experiment: kinetic assay with fluorogenic peptide substrate, MMP-2; assay type: biochemical, human
Chain of MMP-2 (P33434 110-467): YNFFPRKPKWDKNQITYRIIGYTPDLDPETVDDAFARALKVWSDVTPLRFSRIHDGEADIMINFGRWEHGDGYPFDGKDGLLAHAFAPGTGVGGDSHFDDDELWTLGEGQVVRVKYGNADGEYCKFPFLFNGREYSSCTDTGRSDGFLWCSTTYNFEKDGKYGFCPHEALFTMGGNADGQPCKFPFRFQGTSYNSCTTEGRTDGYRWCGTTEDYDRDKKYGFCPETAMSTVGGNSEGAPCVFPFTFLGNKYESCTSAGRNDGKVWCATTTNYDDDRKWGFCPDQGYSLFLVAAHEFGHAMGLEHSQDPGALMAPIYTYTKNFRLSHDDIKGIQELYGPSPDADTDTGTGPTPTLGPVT

Chain of Heme group within Hemoglobin (P69905 2-142 limits assumed): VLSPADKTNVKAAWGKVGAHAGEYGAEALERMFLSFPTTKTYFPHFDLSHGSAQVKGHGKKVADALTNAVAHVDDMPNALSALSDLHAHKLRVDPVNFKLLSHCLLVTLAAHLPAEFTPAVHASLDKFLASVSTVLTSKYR
Chain of Heme group within Hemoglobin (P68871 2-147 limits assumed): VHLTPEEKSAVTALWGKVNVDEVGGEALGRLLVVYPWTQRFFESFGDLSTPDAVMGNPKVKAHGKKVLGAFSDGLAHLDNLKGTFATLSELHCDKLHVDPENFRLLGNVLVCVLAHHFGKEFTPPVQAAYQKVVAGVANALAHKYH
T2 sequence (P33434 110-467): as the sequence (P33434 110-467) above
T1 sequence (P41245 108-730): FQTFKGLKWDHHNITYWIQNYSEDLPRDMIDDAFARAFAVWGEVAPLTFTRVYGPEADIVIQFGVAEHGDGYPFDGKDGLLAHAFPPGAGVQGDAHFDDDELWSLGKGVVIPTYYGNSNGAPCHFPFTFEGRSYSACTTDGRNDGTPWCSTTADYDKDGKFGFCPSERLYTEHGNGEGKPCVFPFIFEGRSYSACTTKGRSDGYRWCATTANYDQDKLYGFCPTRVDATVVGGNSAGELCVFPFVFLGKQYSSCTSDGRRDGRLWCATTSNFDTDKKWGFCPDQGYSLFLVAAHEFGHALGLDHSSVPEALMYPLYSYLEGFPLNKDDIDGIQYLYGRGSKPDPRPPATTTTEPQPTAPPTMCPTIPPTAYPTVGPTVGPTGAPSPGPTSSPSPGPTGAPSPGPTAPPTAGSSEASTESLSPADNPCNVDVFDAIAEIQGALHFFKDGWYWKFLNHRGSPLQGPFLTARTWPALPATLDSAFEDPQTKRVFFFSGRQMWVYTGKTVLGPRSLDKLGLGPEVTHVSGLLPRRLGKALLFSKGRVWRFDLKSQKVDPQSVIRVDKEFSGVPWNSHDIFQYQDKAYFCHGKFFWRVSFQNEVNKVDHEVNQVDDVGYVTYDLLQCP
Chain of TACE (P78536 215-824, species assumed): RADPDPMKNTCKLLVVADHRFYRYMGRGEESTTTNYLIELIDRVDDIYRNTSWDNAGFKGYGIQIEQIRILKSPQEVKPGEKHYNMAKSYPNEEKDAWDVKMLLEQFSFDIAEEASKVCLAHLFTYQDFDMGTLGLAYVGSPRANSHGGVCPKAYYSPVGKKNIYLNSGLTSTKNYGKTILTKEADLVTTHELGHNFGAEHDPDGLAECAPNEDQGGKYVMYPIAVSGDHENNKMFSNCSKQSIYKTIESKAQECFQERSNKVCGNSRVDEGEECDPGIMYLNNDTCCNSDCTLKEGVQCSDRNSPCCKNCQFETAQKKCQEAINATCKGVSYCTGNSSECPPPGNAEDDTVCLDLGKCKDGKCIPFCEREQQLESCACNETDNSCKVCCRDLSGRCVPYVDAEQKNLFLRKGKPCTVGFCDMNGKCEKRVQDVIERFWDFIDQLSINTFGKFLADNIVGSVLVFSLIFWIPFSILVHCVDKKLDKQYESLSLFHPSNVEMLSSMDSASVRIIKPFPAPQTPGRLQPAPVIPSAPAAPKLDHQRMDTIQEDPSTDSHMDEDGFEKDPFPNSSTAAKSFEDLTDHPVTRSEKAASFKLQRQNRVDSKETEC

Molecule	in vivo complex with active MMP-9 [1]	reduction in colon length ([2]; 1.5 mg/kg mouse daily i.p.) [%]	reduction in colon length ([2]; 5 mg/kg mouse daily i.p.) [%]	disease activity index (DAI) ([2]; 2% DSS 5 days, daily i.p. mAb from day 0, versus untreated control)	mortality rate ([2]; 11 days after induction, 6C6 treated mice) [%]	binding to MMP-2 catalytic domain [3]	cross reactivity with Hemoglobin [4]	binding to TACE [5]	mode of inhibition of MMP-2 [6]
B1	formed a specific in vivo complex	22	16	decreased disease activity	33	formation of a specific complex	–	–	–
B2	–	–	–	–	–	–	No cross was detected	no binding was detected	competitive inhibitor
